Laboratory results reported in patent US20210268016A1 (YALE UNIVERSITY, published 2021).

Biological target: biotinylated Aβ1-42 oligomers (Aßo) prepared from biotinylated synthetic Aβ1-42 peptide (human)
Test: biolayer interferometry, biotinylated Aßo on streptavidin sensor

B1: recombinant full-length human PrP^C (AA23-231) (receptor)
chain: not shown
  binding result: binds
